Experimental data taken from the supplement of paper PMC9112550, “Optimization of the antimicrobial peptide Bac7 by deep mutational scanning” (BMC Biology, 2022).

What follows are sequences tested on Escherichia coli TOP10 (assay: shrunken log2 fold change of peptide-encoding DNA abundance (4.5 h post-induction vs induction); higher = less antimicrobial activity (less host growth inhibition)). Details: time post-induction: 4.5 h; library: site-saturation at positions 5, 18, 19, 20.
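Note: peptides expressed intracellularly from a pBAD plasmid library in pooled LB shake-flask culture, induced with 0.3% L-arabinose, DNA abundance read by NGS, three biological replicates, DESeq2 with apeglm shrinkage.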

Sequence	shrunken log2 fold change
RRIRNRPPRLPRPRPRPRWCPRP	0.169
RRIRWRPPRLPRPRPRPGYTPRP	-0.13
RRIRYRPPRLPRPRPRPPSTPRP	-0.294
RRIRIRPPRLPRPRPRPIIIPRP	-0.598
RRIRFRPPRLPRPRPRPFLMPRP	-0.263
RRIRARPPRLPRPRPRPSLVPRP	0.413
RRIRCRPPRLPRPRPRPMARPRP	0.352
RRIRVRPPRLPRPRPRPIWPPRP	-0.0228
RRIRMRPPRLPRPRPRPPIIPRP	-0.306
RRIRDRPPRLPRPRPRPDFWPRP	0.596
RRIRMRPPRLPRPRPRPVRWPRP	1.38
RRIRCRPPRLPRPRPRPYGLPRP	-0.0136
RRIRCRPPRLPRPRPRPIHLPRP	-0.193
RRIRTRPPRLPRPRPRPYMAPRP	-1.06
RRIRFRPPRLPRPRPRPVFEPRP	-0.0387
RRIRLRPPRLPRPRPRPQERPRP	-0.839
RRIRVRPPRLPRPRPRPWNSPRP	-0.106
RRIRCRPPRLPRPRPRPECDPRP	0.346
RRIRNRPPRLPRPRPRPQGPPRP	0.0355
RRIRQRPPRLPRPRPRPDQCPRP	-0.0972
RRIRIRPPRLPRPRPRPKSIPRP	-0.14
RRIRGRPPRLPRPRPRPYKGPRP	-0.236

Sequence	shrunken log2 fold change
RRIRVRPPRLPRPRPRPQYYPRP	-0.238
RRIRKRPPRLPRPRPRPGWPPRP	0.424
RRIRMRPPRLPRPRPRPEHKPRP	2.5
RRIRARPPRLPRPRPRPWAKPRP	0.334
RRIRLRPPRLPRPRPRPFLCPRP	-0.353
RRIRMRPPRLPRPRPRPQTPPRP	2.18
RRIRFRPPRLPRPRPRPFKFPRP	-0.107
RRIRYRPPRLPRPRPRPPKQPRP	-0.0678
RRIRHRPPRLPRPRPRPWILPRP	-0.223
RRIRFRPPRLPRPRPRPWWHPRP	-0.334
RRIRSRPPRLPRPRPRPPYFPRP	-0.0285
RRIRERPPRLPRPRPRPDRYPRP	-0.00433
RRIRIRPPRLPRPRPRPEETPRP	-0.00208
RRIRGRPPRLPRPRPRPWGHPRP	0.152
RRIRLRPPRLPRPRPRPTNEPRP	-0.127
RRIRLRPPRLPRPRPRPHSFPRP	0.0434
RRIRGRPPRLPRPRPRPLQSPRP	0.746
RRIRMRPPRLPRPRPRPHRTPRP	-0.177
RRIRARPPRLPRPRPRPFEYPRP	-0.0276
RRIRGRPPRLPRPRPRPWSQPRP	0.142
RRIRGRPPRLPRPRPRPQQRPRP	1.43
RRIRKRPPRLPRPRPRPEYIPRP	-0.367

Sequence	shrunken log2 fold change
RRIRIRPPRLPRPRPRPRAEPRP	-0.202
RRIRCRPPRLPRPRPRPIKFPRP	-0.159
RRIRLRPPRLPRPRPRPMGIPRP	0.0924
RRIRDRPPRLPRPRPRPHFNPRP	-0.381
RRIRLRPPRLPRPRPRPWYPPRP	-0.242
RRIRARPPRLPRPRPRPYPIPRP	-0.249
RRIRARPPRLPRPRPRPGMRPRP	0.545
RRIRFRPPRLPRPRPRPVWCPRP	-0.158
RRIRCRPPRLPRPRPRPTHHPRP	0.126
RRIRKRPPRLPRPRPRPVAFPRP	0.238
RRIRRRPPRLPRPRPRPMSKPRP	0.404
RRIRWRPPRLPRPRPRPKVRPRP	-0.00879
RRIRYRPPRLPRPRPRPAHTPRP	-0.113
RRIRVRPPRLPRPRPRPVVCPRP	0.251
RRIRYRPPRLPRPRPRPSNWPRP	-0.385
RRIRFRPPRLPRPRPRPFCGPRP	-0.0609
RRIRLRPPRLPRPRPRPVMIPRP	-0.269
RRIRLRPPRLPRPRPRPITNPRP	-0.391
RRIRERPPRLPRPRPRPCVEPRP	-0.11
RRIRSRPPRLPRPRPRPGFKPRP	0.122
RRIRDRPPRLPRPRPRPVNQPRP	0.0383
RRIRPRPPRLPRPRPRPCAPPRP	0.159

Sequence	shrunken log2 fold change
RRIRSRPPRLPRPRPRPSWLPRP	-0.101
RRIRHRPPRLPRPRPRPTIEPRP	-0.0518
RRIRWRPPRLPRPRPRPACFPRP	0.513
RRIRGRPPRLPRPRPRPCRSPRP	-0.0741
RRIRMRPPRLPRPRPRPVSFPRP	0.000809
RRIRSRPPRLPRPRPRPILGPRP	-0.016
RRIRYRPPRLPRPRPRPYETPRP	0.112
RRIRQRPPRLPRPRPRPSHEPRP	-0.0209
RRIRHRPPRLPRPRPRPWLRPRP	-0.0716
RRIRLRPPRLPRPRPRPIAWPRP	0.0351
RRIRQRPPRLPRPRPRPHDTPRP	-0.152
RRIRTRPPRLPRPRPRPMLFPRP	0.177
RRIRYRPPRLPRPRPRPMSVPRP	-0.0288
RRIRKRPPRLPRPRPRPWSSPRP	-0.136
RRIRDRPPRLPRPRPRPKDGPRP	-0.0429
RRIRQRPPRLPRPRPRPIEFPRP	-1.79
RRIRMRPPRLPRPRPRPHATPRP	2.78
RRIRARPPRLPRPRPRPMLPPRP	0.425
RRIRWRPPRLPRPRPRPIGMPRP	-0.131
RRIRARPPRLPRPRPRPLLIPRP	-0.0375
RRIRLRPPRLPRPRPRPACNPRP	-0.191
RRIRVRPPRLPRPRPRPDDNPRP	-0.0966

Sequence	shrunken log2 fold change
RRIRVRPPRLPRPRPRPQEMPRP	0.0818
RRIRARPPRLPRPRPRPVKCPRP	0.03
RRIRARPPRLPRPRPRPYSKPRP	-0.91
RRIRHRPPRLPRPRPRPQNCPRP	0.0145
RRIRLRPPRLPRPRPRPVASPRP	-0.0255
RRIRSRPPRLPRPRPRPSYRPRP	-0.131
RRIRNRPPRLPRPRPRPYNKPRP	-0.963
RRIRMRPPRLPRPRPRPGQWPRP	0.204
RRIRIRPPRLPRPRPRPRYYPRP	-0.372
RRIRCRPPRLPRPRPRPRGFPRP	0.249
RRIRLRPPRLPRPRPRPDWIPRP	-0.0697
RRIRPRPPRLPRPRPRPTEHPRP	-0.1
RRIRSRPPRLPRPRPRPDDAPRP	0.162
RRIRYRPPRLPRPRPRPILRPRP	-0.172
RRIRQRPPRLPRPRPRPPRAPRP	0.552
RRIRQRPPRLPRPRPRPKQWPRP	0.293
RRIRARPPRLPRPRPRPKANPRP	0.297
RRIRLRPPRLPRPRPRPYAPPRP	-0.329
RRIRGRPPRLPRPRPRPDPSPRP	0.414
RRIRRRPPRLPRPRPRPKCNPRP	-0.0456
RRIRRRPPRLPRPRPRPELRPRP	0.463
